Biological target: the molecule itself
Assay: crystal structure

B1: SalC (enzyme, Salinispora tropica CNB440)
chain: MSEAVERNYDPGDVAIIGASCRFPGARNKEQYWDNLLHGREGVTFYAKDEIEVDETLINSPAYVRATGALDGYDEFDPAVFGVSDRMAAAMTPEHRVFLEASWEVMEDASYDPERVRGEVGVYASTNPQSAALYSSPPDWVSAGPEVMDRSNAWLPDTITSNVLYYLGLTGEAVTVTAVCSGFHYAVHLACQSLLLGQTDMAIAGGVMVRLPQRRGYLWEEGRILSRDGHCRPFDANGTGSVLASGVAVVLLKPLPQAVADRDHIYATVKGTAINNNGISAMAYGLAQPERLSACIAGAMQAGDVAPETVSMYEANGFGMPITDSLEVHAAHLAFGKQSGTCSIGAVKGNIGHAGVVAGGSGAVKAAFALYHRSLPPTINLTELNEEIDFPRTPFVPQLEPAAWQPECGIRRAGITALGGGGYNAHLVLEEPPRPVEREPENRRPRIVTLSALDDAAVSRQRAALSSWLAEHSDARLDDIAYSLNLGRKALPSRWAAVISTRDELLEVLSGDGKSGRVSRFGQERRADLARFRRTEDGLALGSGDEMRDVQALTELAAAWVQGERVNFEVLHADERSHRISLPNYPFARRRFWRTDW
stoichiometry N: 4
